Measured values taken from paper PMC12505970.

Biological target: FLAG-AuxB^W86A (S. aureus) (S. aureus)
Assay: co-IP; FLAG-tagged bait from S. aureus membranes solubilised in 1% DDM (PBS pH 7.4, NaCl), α-FLAG M2 magnetic beads at 4°C, washes with decreasing DDM, elution with 3×FLAG peptide; Coomassie-stained gel, bands identified by LC-MS

## PknB (endogenous, S. aureus) (from UniProt A0A0H2XGG5 1-664) (natural protein)
  ratio of PknB pulled down, AuxB^W86A against wild type (densitometry): 4.2
  ratio of PknB pulled down, AuxB^W86A against wild type (peptide counts of PknB in the total eluate): 5
